Assay results taken from the DeepSol protein solubility set.

Assay: soluble on expression in E. coli; label from the status in PepcDB or PDB records

Sequence | soluble on expression in E. coli
MICSLFVDKVNKETYLCAMKQEYISRIRSFNRYYTKILGILNKYYLGSELGLPEVRIIQDVYLHPDRSSKDISNELNMDKGLLSRLLKQLEQKEYIFRKSTEKDNRMGLVNLTEKGCEVYYRLNTAANQSIERIFSHLEDRQLQRLVHCMDSIYKIINSVETGLTVDNNEPIVIRPIEESDNASIASVLRASVEEHGAPKVGTFYDDPHTDRMFQTFNIKGAEYWIVESNGVILGGGGFYPTKGLPHGYAELSKFHFRPELRGRGIGKRLLQFIEQRAVSAGYVYMYIVSYHQFGNAVSMYEKYGYEHIDNALDQSGLYQDAPFHMVKAL | not soluble
MEPTGMMVAAPTASLPEAIGGERNWDYRYTWIRDTAYVIEALATIGYKREAVSFLYDMMDVISRENKIRTIYSIDNSDDFVERELDFEGYRGSRPVRIGNKAVDQLQIDQYGSIVRAIHAMEKAGGVVNSYLWDFVEEMMAKIEYLWKYPDSSIWEFRTEPKQYVYSKVMSWAAFDSAITMARDLGLTAPIKKWKGIQDEIWNDVMTKGFDPQTNSFVQYYGSKNVDASLLRLPILGFIPANDERFIGTMKRIEDELMVDGYLFRRYREDDGLKGDEGSFLMLTFWYIEDLILMKRLKAARAALESIIEKANHLGLYSEEIDEKTGDFLGNFPQALSHLGIIRVAPKLEEAFLKRVSKINELEHHHHHH | not soluble
MRRAGLGEGVPPGNYGNYGYANSGYSACEEENERLTESLRSKVTAIKSLSIEIGHEVKTQNKLLAEMDSQFDSTTGFLGLCPM | soluble
MMLITTSHRPTRRTRSFGHDLERVIPNSLYLTRGKKTIQELLMEAYDRGYERLLIINVWKGNPLKMTFIKVHPEDWGYLGYLYLHGVKLQREMGFKGLNPIREDMPLVITTAKRVGLDHLAFAQVFSELTTGKFVPRGDKSLLSIADRYNTDVLAVIERHPRGIVINFYRLDITKDRPVGPLINVKIWIMEDGRRWDYKEAFGIKVPPRRREFEGKRGEGKNSDLEHHHHHH | not soluble
MFTIKKATTNDIQLINEMAQIVFPATYREILSKEQLDYMMDWMYSPKNLRKQMEEEGHIYYIAYKDGEAAGYVSIQPEGEHLFHLQKIYVLPLFQGCRLGKALFEQAVKAIKEIHPGPCEMHLNVNRNNKALQFYQHLGMEKVAEGDFHIGNGYYMNDYIMGLKI | not soluble
MKRFAFFDVDDTLITVKSMFDFFRYWTLEWRRESAALEAFEREFSQLRAAGESRENLNRAYYRYFAGIRSEDIERAGAAWASAWLAHPERFFIAAPVHLLRELSADGVEPVFVSGSFDAVLRPIADHLSVTNILAAPLELRADGCYTGRIGTPQTIGAGKAVAIRNFLSEQKVRADVCLAVGDDISDLPMLQSVGTAVVVGEHPQLTEIADARSWRRLPAMAE | not soluble
GSHMASMTGGQQMGRGSMLPRLICINDYEQHAKSVLPKSIYDYYRSGANDEETLADNIAAFSRWKLYPRMLRNVAETDLSTSVLGQRVSMPICVGATAMQRMAHVDGELATVRACQSLGTGMMLSSWATSSIEEVAEAGPEALRWLQLYIYKDREVTKKLVRQAEKMGYKAIFVTVDTPYLGNRLDDVRNRFKLPPQLRMKNFETSTLSFSPEENFGDDSGLAAYVAKAIDPSISWEDIKWLRRLTSLPIVAKGILRGDDAREAVKHGLNGILVSNHGARQLDGVPATIDVLPEIVEAVEGKVEVFLDGGVRKGTDVLKALALGAKAVFVGRPIVWGLAFQGEKGVQDVLEILKEEFRLAMALSGCQNVKVIDKTLVRKNPLAVSKI | soluble
MKIGIIGAGLGGLLSGAILSKEHSITIYEKLPFVGGRFTNIPYKGFQLTTGALHMIPHGNEGYLAQTLRRAGSNVKIVNSEPDGYFRINGKNHEYKDIFGLVSAKDKLKALKLAASLKLGKIDKNMPFGEFLEDIPLALDVGNSFSGWALSLNAYDTPMSEIIEISKLYHKFGGPGIPVGGCKGVIDSLVEIINKNGGKIYTSHAIEKIEVEENNVFLDSEQFDIVISNASPKLTEKMSNIKFIEKEPVPSKGIKINVASKLSLVDGASVIFTTDCERINGLNQPSNVDRSLAKEDYNLIMLHATQIKNNTKEEISLALNDIESLFGGKDYEVISIQSYGNGWPVNHASNGTDLNPIVKDNLLLVGDGVKGVGGIEVEGVAMSVIAVLNHIEKLKK | soluble
MSLFRGFGRSTLAKIGSTEISTEQFRQTYNDRLQQIGRQFGRPLTPDQARAIGIDRQVLQQTIAEAALDEDARRLGLGQSDADTMKSILEDPNFKGANGQFDANRFQQLIRQFGFTEQRYLAEQRRVALRRQIAGSLTAGLEAPKTLMQALSQFQSEERAIDYLKLTDAQAGTIAAPSPADLTAFYDSHKAQFRAPEYRKISFLVVTPESIAKWAEVSDADAQKLFEQRKDKLSTPEKRQLLQIVFPSVEEAQAGRAKIASGTSFADLAKERGVKPADLDLGLVSQSEMLDQKVAAAAFALPLNEVSQPVQGQFGTVLLEVTKIETEGHHHHHH | soluble
MRHCGWLLGLLSLFSLATHASDWQEIKNEAKGQTVWFNAWGGDTAINRYLDWVSGEMKTHYAINLKIVRLADAADAVKRIQTEVAAGRKTGGSVDLLWVNGENFRTLKEANLLQTGWAETLPNWRYVDTQLPVREDFSVPTEGAESPWGGAQLTFIARRDVTLQPPQTPQALLEFAKANPGTVTYPRPPDFTGTAFLEQLLIMLTPDPTALKEAPDDATFARVTAPLWQYLDALHPYLWREGKDFPPSPARMDALLKANTLRLSLTFNPAHAQQKIASGDLPASSYSFGFREGMIGNVHFVTIPANANASAAAKVVANFLLSPDAQLRKADPAVWGDPSVLDPQKLPDGQRESLQSRMPQDLPPVLAEPHAGWVNALEQEWLHRYSTH | not soluble
MGSDKIHHHHHHMRKDVLEGVLLHIMNEIHPNFAALAKQYNCDYRTVKRYYEAGLTGDLDKLRERKPSVPPLLHGFEEIIRDKLELNCSAASIFYFLGKKDYKGSYTTIKRYCRKYREEKVQKATIRIETTPGLSAQVDWKENVKMVSRDGEVFYFNIFLYILGYSRMKYLELTFDRTQPTVFQCLVNAFEYCGNGIPQEIWFDNMKTVVDRSKSQFTQTVFNEKFRQFAKDAGFHPIACRPFRPQTKGKVEALARTVERLMVFNYEFTDVQELKQIIYELMQDLNGSVSQAIHNKPTVLLKEELPILAPIHRLELLSYVSRNKRLLRKVSMESMVQYQNAKYSVPVKYIGKEVTLDIRRDNLFVWYGDKCIRTHPISEKALNYQREDSLEILRSDVFKYLEDEELERFVDDNLHAYDDL | not soluble
SRLFDEVVKKELDEAALKGVILTDGELKPEEFSMHIAEQLRAGGPFGQAFPEPIFDGEFKVLHQKLVGEKHLKLMLEPLYKGHPTNVMIDGIAFNVDLRRWPDASVKTVRLAYKLDVNEFRGNQSLQLMIDHIEAK | not soluble
MGSDKIHHHHHHMSIPQQTDALDQAPSTAGCRVPYRVFTDRQYYDREQENIFKGNCWSFVGLEAEVPQAGDFKSTFVGETPVILTRDSDGSLHVVVNRCAHRGALVCREMRGNRASLECVYHQWAYDLKGNLIGVPFRRGLKGQGGMPGDFDMSQHNLRQLRTESVGGLVFASFSETVESCRDFLGPIVVEQIERIMCKPITVLGDQRQRIRGNWKLYAENTRDPYHASLLHLFHNTFGLYRSTQTGKALMDANKRHSLLYSIAASNDDAADKQAYGDSRTFDTEFKLQDMSLLKGRQEFADNVTLVILAVYPNLVLQQIQNTLAVRQTVTYGPDEFELVWTHFGYQDDDAEMQAIRLKQANLIGPAGLISMEDGEAVEIVQNAIVGEASATSYIAMGGGRAEDADHLVTEGAIIGFWDNYREMVGFEVEPT | not soluble
MNVLIIEDDPMVDFIHRNYLEKLNLFDRIISSDSMKAVQSILTDYAIDLILLDIHITDGNGIQFLEKWRTQHIPCEVIIISAANDGNIIRDGFHLGIIDYLIKPFTFERFQESIQQFVTHREHLANQQLEQAQIDQLKCLTSKKDTKNKQLLEKGLSESTFQWIMENIKVFDQPFTIQELASACHLSHVSVRKYIAYLEENKQLNSQQIFTKVGRPYRVYW | not soluble
MSLQSFENEIAFITGGASGAGFGQAQVFGRAGAKIVVADVRAEAVERAVAALKAEGIVAHGLVLDITDRQAYAGAADEVEQVFGAAPTLLFNTAGVNSFGPVEDTSYDDFDWIVGVNLGGVINGMVTFVPRMIASGRPGHIVTTSSLGGLMGSALAAPYSAAKAAVINLMESYRQGLDKHGIGVSVLCPANIKSNIAEASRLRPAQFGKSGYVENEESIASLHSIHQHGMDPVELAEHVKAGIVANQLYIIPYPEAKDGLRQHFDAIVDAVLPLEADPEGARARTEALNAWAADRARVFMEKNAAQKAEGHHHHHH | not soluble
MNRIEHYHDWLRDAHAMEKQAESMLESMASRIDNYPELRARIEQHLSETKNQIVQLETILDRNDISRSVIKDSMSKMAALGQSIGGIFPSDEIVKGSIGGYVFEQFEITCYTSLLAAAKNAGDTVSIPIIEAILNEEKQMADWLIQHIPQTTEKFLIRSETDGVEAKK | not soluble
MGSDKIHHHHHHMNIQSIEPTPSPNTMKLTLDQTLPQGKSNNYTLKNKEEAPPFIQKLFEIEGVKGVYHVADFLAIERNAKVDWKVILPKVRAVFGDETGDGPQKEKPEVQEGYGEVQVFLQLFKGIPMQIKLSNGEEEVREGLPERFANAAFAAQQPDDNVVLERKWVEQGVRYGELADVAKDVAEEVSAAFSQERLDRLVNIAKGLVDKTQEQTEERFRKVTLADMEQDDWRDRYAALDKMDPTEEDLPVLEKALQDEKASIRRLATVYLGMIEKPVVLPLLEKALKDPSVTVRRTAGDCMSDIGDPAAIPAMIEALKDKNKLVRWRAAMFLYEVGDETAIDALRLAEDDPEFEVAMQVKMALERIVGGEEAKGSVWKQMTEEMAKGKNE | not soluble
GPGSMSVEASRPTRSQDPLPAAVIREFLEMHQQCNDQSLGQGESPTGTEKDGTRAAEARVVSAPLRVEVETTHGYVYEGRLVAMDEFYNVTLTEATKRRERLCDVERSLLTMHGFPAPAASPSTRREYVGSVLVRSGNLLMIRFPQGEGNATRVLHGAFKSMVMKVRRQINLERQKNRMERRRRKQLPVKPQSLVGKAGDPPKRTKAKKE | soluble
MDTMSQILKLLEKTDSIEINEFRMDVDELELTIMPTLQNVVQKVVEKQIEAKKEFESQIEFKYPVKDYAGKVNEVKLGGKNRKTVKLGGQTSLYRFEEPQPNAPTVTFDVFDIPMNGLPRPIKENFEDVMHSPGEWAQKAVKEFGADMITLHLIGTDPKVKDKSLKDAAKDLEEVLQAVKVPLVIGGSGNPKKDPLVLEMAAEVADGERCLLASANLDLDYQKIAQAAVKHDHAVLSWAISDINMQKVLNKALMKEGLTANDIVMDPTTCALGYGIEFSIDVMTRTRLSALKGDEILQMPMSSGTTNAWGSREAWMKKDEWGPTKYRGPIWEVVTGLTMMLCGVDIFMMLHPLSVKTLKEIGTTLTYEYKSKESQDISDWINKF | not soluble
MEYAADGDTVFLESIENMEVTRLDSAIIRNGTFSFKGRQDSTVARYLSCMTATDVFSIPFFLENGHIEVKMKSGNESVTGTPTNDIYQEIRSKMAEIMNKMNEIYSDSTLTEELAEEKMDQMEREYTIAQKEAVKKNIANPVGVFLFKEQYFENSLAENQALFRQIPPKYLNDPVLMGMQKQMESQEKTDMNTPFT | not soluble
SSVLRSMDKLPDLNRATVLLVSTEDALLQQLAESMLKDDCASELRVHLANSLPLPSNVNRPRIDLIVFVINLHSKYSLQKVEEFLQHVDSSFFLGKVCFLVTGAGQESHCSVHQNTVIKLAHTYRSPLFLCDLQKVESFRAAMARRLVRILQICAGHVPGVSALNLMSLLRSPENPPSKEL | soluble
